Assay [1] concerns the target HLA-A*02:01. Nature of the assay: IEDB peptide-MHC binding, purified MHC/competitive/fluorescence; ≥ and ≤ were set here for values at or beyond the usual limits of such assays.
The next assay concerns the target HLA-A*30:02. Nature of the assay: IEDB peptide-MHC binding, purified MHC/competitive/radioactivity; filed as Kd, often an IC50 or EC50 that approximates it; ≥ and ≤ were set here for values at or beyond the usual limits of such assays.
In a further assay the target is HLA-A*26:01. The description is as above.
In another assay the target is HLA-A*24:02. The assay is described as above.
In a further assay the target is HLA-A*01:01. Kind of assay: IEDB peptide-MHC binding, purified MHC/direct/fluorescence; filed as Kd, often an IC50 or EC50 that approximates it; ≥ and ≤ were set here for values at or beyond the usual limits of such assays.
A further assay deals with HLA-A*69:01. The description is as above.
Another assay concerns the target HLA-B*51:01. Kind of assay: IEDB peptide-MHC binding, purified MHC/competitive/radioactivity; filed as Kd, often an IC50 or EC50 that approximates it; ≥ and ≤ were set here for values at or beyond the usual limits of such assays.
The target in another assay is HLA-B*07:02. Nature of the assay: IEDB peptide-MHC binding, purified MHC/direct/fluorescence; filed as Kd, often an IC50 or EC50 that approximates it; ≥ and ≤ were set here for values at or beyond the usual limits of such assays.
A further assay has as its target HLA-B*27:05. Described as above.
A further assay concerns the target HLA-B*15:01. The assay is described as above.
Assay [2] has as its target HLA-A*02:01. The description is as above.
Another assay addresses HLA-B*58:01. The assay is described as above.
The target in another assay is HLA-A*11:01. The assay is described as above. Conditions: source organism: SARS-CoV1.
The next assay concerns the target HLA-A*02:02. Nature of the assay: IEDB peptide-MHC binding, purified MHC/competitive/radioactivity; filed as Kd, often an IC50 or EC50 that approximates it; ≥ and ≤ were set here for values at or beyond the usual limits of such assays.
The target of a further assay is HLA-A*02:06. The description is as above.
A further assay concerns the target HLA-A*02:03. Described as above.
The mark [3] stands for this setting: source organism: Sudan ebolavirus.
Where [4] appears, read: source organism: Zaire ebolavirus.
Setting [5] is: source organism: Dengue virus 1 Brazil/97-11/1997.
[6] abbreviates: source organism: Dengue virus 2 Jamaica/1409/1983.
The mark [7] stands for this setting: source organism: Human betaherpesvirus 6B.
Where [8] appears, read: source organism: Mammarenavirus juninense.
Setting [9] is: source organism: Salmonella enterica subsp. enterica serovar Typhimurium.
The mark [10] stands for this setting: source organism: Entamoeba histolytica.
Setting [11] is: source organism: Dengue virus 3 Martinique/1243/1999.
The mark [12] stands for this setting: source organism: Vaccinia virus WR.
[13] abbreviates: source organism: Bacillus anthracis.
[14] abbreviates: source organism: Mammarenavirus guanaritoense.

What is called IC50 is the concentration that inhibits the measured activity by half. As to TTLPSQNST, the IC50 in the assay with HLA-A*02:01 [1] (setting [3]) is at least 206 µM. In turn, QGDNDNWWT gave a 50% inhibitory concentration (IC50) in the assay with HLA-A*02:01 [1] (setting [4]) of at least 283 µM. For orientation: Kd means a measure of binding affinity in units of concentration. Regarding IWLKLRDSY, in the assay with HLA-A*30:02 (setting [5]), the Kd was determined as 0.673 µM. Take ELCEDTITY: the Kd with HLA-A*26:01 (setting [6]) is 0.754 µM. On to VGMGEAAAIF, for which, in the assay with HLA-A*24:02 (setting [5]), the equilibrium dissociation constant (Kd) was found to be 8.64 µM. Turning to ICDDVLSKY, the Kd with HLA-A*01:01 (setting [7]) is 3.18 µM; with HLA-A*69:01 (setting [7]) it was 2.69 µM. For the sequence NGLITSTVT, in the assay with HLA-A*02:01 [1] (setting [3]), the IC50 is at least 118 µM. On to LAMGCYSQV, for which the equilibrium dissociation constant (Kd) with HLA-B*51:01 (source organism: Dengue virus 4 Philippines/H241/1956) was 0.14 µM.

As to RPKSNIVLL, the Kd in the assay with HLA-B*07:02 (source organism: Homo sapiens) turned out to be 0.2 µM. As to GRSCTEETF, in the assay with HLA-B*27:05 (setting [8]), the Kd is at least 20 µM.

VPLQWIASAI: the dissociation constant Kd with HLA-B*51:01 (source organism: Dengue virus 3 Sri Lanka/1266/2000) turned out to be 0.0217 µM. As to YLGPTIRVW, the dissociation constant (Kd) stood at 1.22 µM with HLA-B*15:01 (setting [9]), 1.87 µM with HLA-A*02:01 [2] (setting [9]), 0.127 µM with HLA-B*58:01 (setting [9]) and 13.2 µM with HLA-B*07:02 (setting [9]). Take WPLNEAIMAV: in the assay with HLA-B*51:01 (setting [6]), the dissociation constant Kd turned out to be 0.47 µM.

Take ASLLRRWPK: the equilibrium dissociation constant (Kd) in the assay with HLA-A*01:01 (source organism: Vibrio cholerae) was at least 20 µM. In the case of VMATEEPTT, the IC50 in the assay with HLA-A*02:01 [1] (setting [3]) is at least 144 µM. Regarding VPLAGPLIA, the Kd in the assay with HLA-B*51:01 (setting [5]) was determined as 14.8 µM. The sequence GGFSTLDKI gave a half-inhibitory concentration (IC50) with HLA-A*02:01 [1] (source organism: Variola virus) of at least 124 µM. As to TVITPMMRH, the Kd in the assay with HLA-A*26:01 (setting [5]) was determined as 1.7 µM. For the sequence LTPKAQREI, the concentration for half-maximal inhibition (IC50) with HLA-A*02:01 [1] (source organism: Variola virus) is at least 71.4 µM. Take GTGPCAGDF: the 50% inhibitory concentration (IC50) in the assay with HLA-A*02:01 [1] (setting [4]) was at least 512 µM. Same read-out and setting: for FMAILQHHQ the value was 1.08 µM. For TSIGLLCVM, in the assay with HLA-A*26:01 (source organism: Dengue virus 1 Singapore/S275/1990), the Kd worked out at 2.45 µM. Take DFPGKTVWF: in the assay with HLA-A*24:02 (setting [5]), the equilibrium dissociation constant (Kd) was determined as 8.8 µM. On to KQPATLRKY, for which the Kd with HLA-A*30:02 (setting [6]) is 0.416 µM.

In the case of KIMASENSS, the IC50 with HLA-A*02:01 [1] (setting [4]) was at least 119 µM. On to PLTYLEYPI, for which the dissociation constant (Kd) in the assay with HLA-A*02:01 [2] (source organism: Homo sapiens) worked out at 2.86 µM. For KQLESVMYL, the Kd is at least 20 µM in the assay with HLA-A*69:01 (setting [10]) and 0.0048 µM in the assay with HLA-A*02:01 [2] (setting [10]).

ERSDKSYEH: the Kd was 16.8 µM with HLA-A*11:01, 1.84 µM in the assay with HLA-B*58:01 (source organism: SARS-CoV1) and 8.45 µM with HLA-B*27:05 (source organism: SARS-CoV1). With LQKGGVIVY, the dissociation constant (Kd) in the assay with HLA-B*15:01 (source organism: Haemophilus influenzae) came to 0.478 µM.

In the assay with HLA-B*15:01 (source organism: Mycobacterium tuberculosis), IVFATAARY gave a dissociation constant (Kd) of 0.161 µM. In the case of EPPFGESNI, in the assay with HLA-B*51:01 (setting [11]), the equilibrium dissociation constant (Kd) came out at 11.2 µM. For MISRMLINRF, the Kd with HLA-A*26:01 (setting [6]) is 8.33 µM. On to MSFRDLGRVM, for which, in the assay with HLA-B*51:01 (setting [6]), the Kd was at least 38.3 µM. As to APRTLVLLL, in the assay with HLA-B*07:02 (source organism: Homo sapiens), the dissociation constant (Kd) is 0.145 µM.

Consider ISTIGIRPS, for which, in the assay with HLA-A*02:01 [1] (setting [3]), the IC50 was at least 116 µM. Consider TWAKNIQTAI, for which the Kd in the assay with HLA-A*24:02 (setting [6]) came to 0.512 µM. In turn, RSGVPPKVV displayed an IC50 in the assay with HLA-A*02:01 [1] (setting [3]) of at least 80.2 µM. As to KLRSSPPIPM, the figures for the dissociation constant Kd in the assay with HLA-A*02:02 (setting [12]), with HLA-A*02:06 (setting [12]) and in the assay with HLA-A*02:03 (setting [12]) were 0.0576 µM, 2.21 µM and 0.134 µM, respectively. For CIVQSVLRDI, in that order: 0.218 µM, 0.849 µM and 0.158 µM.

For MMQNDYGGM, the values for the Kd in the assay with HLA-A*02:02 (setting [12]), with HLA-A*02:06 (setting [12]) and with HLA-A*02:03 (setting [12]) were 1.08 µM, 1.66 µM and 2.74 µM, respectively. For DTDIVNNFIT, in that order: 8.59 µM, 2.31 µM and 5.59 µM. For TIAVSVYGA, in that order: 0.0254 µM, 0.0987 µM and 0.00989 µM. In the case of ILNGGLGNA, the figures for the Kd with HLA-A*69:01 (setting [13]) and with HLA-A*02:01 [2] (setting [13]) were at least 20 µM and 0.317 µM, respectively.

Take WYGMEIRPI: the dissociation constant (Kd) in the assay with HLA-A*24:02 (setting [11]) worked out at 3.02 µM. Regarding FDFCEGTTVV, the Kd with HLA-B*51:01 (setting [6]) worked out at 2.65 µM.

Consider ATLNTLITLI, for which the dissociation constant Kd amounted to 0.0315 µM in the assay with HLA-A*02:02 (setting [12]), 0.198 µM with HLA-A*02:06 (setting [12]) and 0.0279 µM in the assay with HLA-A*02:03 (setting [12]).

Turning to LCFWSAIFFT, the results for the equilibrium dissociation constant (Kd) in the assay with HLA-A*02:02 (setting [14]), with HLA-A*02:06 (setting [14]) and in the assay with HLA-A*02:03 (setting [14]) were 2.6 µM, at least 34.5 µM and at least 30.3 µM, respectively.

In turn, ASTVIYRGV gave a 50% inhibitory concentration (IC50) in the assay with HLA-A*02:01 [1] (setting [3]) of 7.44 µM. For the sequence IVAAVIIMAI, the Kd with HLA-A*02:02 (setting [12]) came out at 0.727 µM; in the assay with HLA-A*02:06 (setting [12]), 4.51 µM; in the assay with HLA-A*02:03 (setting [12]), 2.61 µM. As to KSGLFQFFV, the Kd with HLA-A*02:02 (setting [8]) is 0.0231 µM; in the assay with HLA-A*02:06 (setting [8]), 0.00806 µM; with HLA-A*02:03 (setting [8]), 1.55 µM.
